Test results: patent US20240167008, “NOVEL CRISPR ENZYMES, METHODS, SYSTEMS AND USES THEREOF” (Beam Therapeutics Inc., published 2024)

Biological target: T1, ScoCas9 (human codon-optimized) (Streptococcus constellatus)
T1 chain: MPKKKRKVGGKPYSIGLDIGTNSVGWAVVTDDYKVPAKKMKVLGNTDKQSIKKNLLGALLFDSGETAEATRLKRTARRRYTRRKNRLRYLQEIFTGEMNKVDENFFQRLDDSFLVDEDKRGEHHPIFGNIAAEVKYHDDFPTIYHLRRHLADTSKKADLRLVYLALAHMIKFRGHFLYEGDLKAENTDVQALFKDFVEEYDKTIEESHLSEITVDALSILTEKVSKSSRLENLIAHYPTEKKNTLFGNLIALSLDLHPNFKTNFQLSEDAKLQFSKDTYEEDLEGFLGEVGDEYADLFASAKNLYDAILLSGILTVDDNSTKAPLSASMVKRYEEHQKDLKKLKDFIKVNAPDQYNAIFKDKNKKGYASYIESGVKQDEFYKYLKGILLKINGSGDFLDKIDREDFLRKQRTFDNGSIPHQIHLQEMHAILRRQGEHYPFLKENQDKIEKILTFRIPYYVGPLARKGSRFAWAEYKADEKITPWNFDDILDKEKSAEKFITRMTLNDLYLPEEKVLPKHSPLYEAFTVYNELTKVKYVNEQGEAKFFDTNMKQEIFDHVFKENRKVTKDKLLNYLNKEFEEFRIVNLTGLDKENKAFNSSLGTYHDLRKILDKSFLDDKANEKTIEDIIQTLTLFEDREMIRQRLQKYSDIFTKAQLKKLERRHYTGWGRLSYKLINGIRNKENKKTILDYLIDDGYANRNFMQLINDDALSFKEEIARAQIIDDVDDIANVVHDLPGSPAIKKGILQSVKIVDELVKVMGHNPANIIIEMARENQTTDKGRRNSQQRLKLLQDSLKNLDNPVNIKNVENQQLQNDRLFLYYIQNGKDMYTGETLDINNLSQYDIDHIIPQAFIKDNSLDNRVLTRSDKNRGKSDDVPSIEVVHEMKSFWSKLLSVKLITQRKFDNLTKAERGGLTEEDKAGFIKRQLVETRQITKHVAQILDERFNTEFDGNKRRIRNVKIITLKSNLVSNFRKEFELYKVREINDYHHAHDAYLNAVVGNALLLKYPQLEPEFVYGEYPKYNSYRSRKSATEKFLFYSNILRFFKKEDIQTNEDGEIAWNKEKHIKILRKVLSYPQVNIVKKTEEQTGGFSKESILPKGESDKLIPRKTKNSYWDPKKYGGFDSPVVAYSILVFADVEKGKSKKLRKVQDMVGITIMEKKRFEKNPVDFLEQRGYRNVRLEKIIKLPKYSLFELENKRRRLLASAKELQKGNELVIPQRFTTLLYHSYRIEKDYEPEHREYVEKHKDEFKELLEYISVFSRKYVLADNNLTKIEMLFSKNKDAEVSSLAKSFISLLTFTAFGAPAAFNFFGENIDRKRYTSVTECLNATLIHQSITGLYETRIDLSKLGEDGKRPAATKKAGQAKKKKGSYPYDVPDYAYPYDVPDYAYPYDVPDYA
Test: cell_activity; PAM NGG; HEK293T
Details: tags: N-terminal and C-terminal NLS, 3xHA
Protocol: HEK293T cells were plated in a 96-well plate. Cells were transfected with expression vectors containing Cas9 and guide RNAs (Table 10), 24 hours after plating. Cells were harvested 72 hours post-transfection and total DNA was extracted.

| Binder | activity |
| --- | --- |
| Sco guide 9 sgRNA ; guide 9 site (ssRNA ; dsDNA) RNA: GUUGAAGAUGAAGCCCAGAGGUUUUAGAGCUGUGCUGUUUAAACAACACAGCAAGUUAAAAUAAGGCUUUGUCCGUACUCAAGCUUGCAAAAGCGUGCACCGAUUCGGUGCU DNA 1: GTTGAAGATGAAGCCCAGAGCGG DNA 2: CCGCTCTGGGCTTCATCTTCAAC | > 30 % indel |
| Sco guide 2 sgRNA ; guide 2 site (ssRNA ; dsDNA) RNA: GAAACAAUGAUAACAAGACCGUUUUAGAGCUGUGCUGUUUAAACAACACAGCAAGUUAAAAUAAGGCUUUGUCCGUACUCAAGCUUGCAAAAGCGUGCACCGAUUCGGUGCU DNA 1: GAAACAATGATAACAAGACCTGG DNA 2: CCAGGTCTTGTTATCATTGTTTC | > 30 % indel |
| Sco guide 11 sgRNA ; guide 11 site (ssRNA ; dsDNA) RNA: UGCUGCACACAGCAGGCCUUGUUUUAGAGCUGUGCUGUUUAAACAACACAGCAAGUUAAAAUAAGGCUUUGUCCGUACUCAAGCUUGCAAAAGCGUGCACCGAUUCGGUGCU DNA 1: TGCTGCACACAGCAGGCCTTTGG DNA 2: CCAAAGGCCTGCTGTGTGCAGCA | ~2 % indel |
